Experimental data from patent US20050287136A1.

Columns and labels:
[1] = biological target: CTLA-4-Ig(G1) (Repligen, Inc.) (UniProt P16410); assay: IGEN ECL bead assay, CTLA-4-Ig(G1) against B7.2-Ig(G1), antibody 1 ug/ml
[2] = biological target: CTLA-4-Ig(G1) (Repligen, Inc.) (UniProt P16410); assay: IGEN ECL bead assay, CTLA-4-Ig(G1) against CD28-Ig(G1), antibody 1 ug/ml

B1: 4.10.2 (antibody, human IgG2, V domains shown)
VH: QVQLVESGGGVVQPGRSLRLSCVASGFIFSSHGIHWVRQAPGKGLEWVAVIWYDGRNKDYADSVKGRFTISRDNSKNTLYLQMNSLRAEDTAVYYCARVAPLGPLDYWGQGTLVTVSS
VL: EFVLTQSPGTLSLSPGERATLSCRASQSISSNFLAWYQQKPGQAPRLLIYRPSSRATGIPDSFSGSGSGTDFTLTISRLEPEDFALYYCQQYGTSPFTFGPGTKVDIK
modifications: chain 1 pos 1: pyroglutamate from Gln (FIG. 9: NH2-Blocked, pQ), written Q
B1 was tested. Which selectivity ratio CTLA4/B7.2 [1] did it give?
The selectivity ratio CTLA4/B7.2 was > 500 :1.

What about the selectivity ratio CTLA4/CD28 [2] of the same binder?
The selectivity ratio CTLA4/CD28 was > 500 :1.
